Data taken from patent US12365738B2, “Method of treating an interleukin-11-associated or -mediated fibrotic disease or condition by administering an anti-interleukin-11 receptor subunit alpha (IL-11RA) antibody” (Lassen Therapeutics, Inc., priority 2021, dated 2025).

B1: mAb21: anti-IL-11Rα antibody, human IgG4 (S228P), kappa; VH SEQ ID NO: 233, VL SEQ ID NO: 234 (antibody, V domains shown)
VH: EVQLLESGGGLVQPGGSLRLSCAASGFTFSHYSMTWVRQAPGKGLEWVSSIVPYGDLTQYADSVKGRFTISRDNSKNTLYLQMNSLRAEDTAVYYCAKGPGWGSFDLWGRGTLVTVSS
VL: DIQMTQSPSSLSASVGDRVTITCQASQDINNYLNWYQQKPGKAPKLLIYDASNLQTGVPSRFSGSGSGTDFTFTISSLQPEDIATYYCQQHESQSPTFGPGTKVDIK
modifications: IgG4 S228P kappa constant regions; mAb21 VH Chain; mAb21 VL Chain
B2: mAb23: anti-IL-11Rα antibody, human IgG4 (S228P), kappa; VH SEQ ID NO: 237, VL SEQ ID NO: 238 (antibody, V domains shown)
VH: EVQLLESGGGLVQPGGSLRLSCAASGFTFSKYSMTWVRQAPGKGLEWVSSIVPYGDLTQYADSVKGRFTISRDNSKNTLYLQMNSLRAEDTAVYYCAKGPGWGSFDLWGRGTLVTVSS
VL: DIQMTQSPSSLSASVGDRVTITCQASQDINNYLNWYQQKPGKAPKLLIYDASNLQTGVPSRFSGSGSGTDFTFTISSLQPEDIATYYCQQHESQSPTFGPGTKVDIK
modifications: IgG4 S228P kappa constant regions; mAb23 VH Chain; mAb23 VL Chain
B3: mAb29: anti-IL-11Rα antibody, human IgG4 (S228P), kappa; VH SEQ ID NO: 249, VL SEQ ID NO: 250 (antibody, V domains shown)
VH: EVQLLESGGGLVQPGGSLRLSCAASGFTFSSYSMTWVRQAPGKGLEWVSSIVPYGDLTQYADSVKGRFTISRDNSKNTLYLQMNSLRAEDTAVYYCAKGPGWGSFDLWGRGTLVTVSS
VL: DIQMTQSPSSLSASVGDRVTITCQASQDINNYLNWYQQKPGKAPKLLIYDASNLQTGVPSRFSGSGSGTDFTFTISSLQPEDIATYYCQQHESQSPTFGPGTKVDIK
modifications: IgG4 S228P kappa constant regions; mAb29 VH Chain; mAb29 VL Chain
B4: mAb31: anti-IL-11Rα antibody, human IgG4 (S228P), kappa; VH SEQ ID NO: 253, VL SEQ ID NO: 254 (antibody, V domains shown)
VH: EVQLLESGGGLVQPGGSLRLSCAASGFTFSVYSMTWVRQAPGKGLEWVSSIVPYGDLTQYADSVKGRFTISRDNSKNTLYLQMNSLRAEDTAVYYCAKGPGWGSFDLWGRGTLVTVSS
VL: DIQMTQSPSSLSASVGDRVTITCQASQDINNYLNWYQQKPGKAPKLLIYDASNLQTGVPSRFSGSGSGTDFTFTISSLQPEDIATYYCQQHESQSPTFGPGTKVDIK
modifications: IgG4 S228P kappa constant regions; mAb31 VH Chain; mAb31 VL Chain
B5: mAb20: anti-IL-11Rα antibody, human IgG4 (S228P), kappa; VH SEQ ID NO: 231, VL SEQ ID NO: 232 (antibody, V domains shown)
VH: EVQLLESGGGLVQPGGSLRLSCAASGFTFSGYSMTWVRQAPGKGLEWVSSIVPYGDLTQYADSVKGRFTISRDNSKNTLYLQMNSLRAEDTAVYYCAKGPGWGSFDLWGRGTLVTVSS
VL: DIQMTQSPSSLSASVGDRVTITCQASQDINNYLNWYQQKPGKAPKLLIYDASNLQTGVPSRFSGSGSGTDFTFTISSLQPEDIATYYCQQHESQSPTFGPGTKVDIK
modifications: IgG4 S228P kappa constant regions; mAb20 VH Chain; mAb20 VL Chain
B6: mAb22: anti-IL-11Rα antibody, human IgG4 (S228P), kappa; VH SEQ ID NO: 235, VL SEQ ID NO: 236 (antibody, V domains shown)
VH: EVQLLESGGGLVQPGGSLRLSCAASGFTFSIYSMTWVRQAPGKGLEWVSSIVPYGDLTQYADSVKGRFTISRDNSKNTLYLQMNSLRAEDTAVYYCAKGPGWGSFDLWGRGTLVTVSS
VL: DIQMTQSPSSLSASVGDRVTITCQASQDINNYLNWYQQKPGKAPKLLIYDASNLQTGVPSRFSGSGSGTDFTFTISSLQPEDIATYYCQQHESQSPTFGPGTKVDIK
modifications: IgG4 S228P kappa constant regions; mAb22 VH Chain; mAb22 VL Chain
B7: mAb24: anti-IL-11Rα antibody, human IgG4 (S228P), kappa; VH SEQ ID NO: 239, VL SEQ ID NO: 240 (antibody, V domains shown)
VH: EVQLLESGGGLVQPGGSLRLSCAASGFTFSLYSMTWVRQAPGKGLEWVSSIVPYGDLTQYADSVKGRFTISRDNSKNTLYLQMNSLRAEDTAVYYCAKGPGWGSFDLWGRGTLVTVSS
VL: DIQMTQSPSSLSASVGDRVTITCQASQDINNYLNWYQQKPGKAPKLLIYDASNLQTGVPSRFSGSGSGTDFTFTISSLQPEDIATYYCQQHESQSPTFGPGTKVDIK
modifications: IgG4 S228P kappa constant regions; mAb24 VH Chain; mAb24 VL Chain
B8: mAb25: anti-IL-11Rα antibody, human IgG4 (S228P), kappa; VH SEQ ID NO: 241, VL SEQ ID NO: 242 (antibody, V domains shown)
VH: EVQLLESGGGLVQPGGSLRLSCAASGFTFSMYSMTWVRQAPGKGLEWVSSIVPYGDLTQYADSVKGRFTISRDNSKNTLYLQMNSLRAEDTAVYYCAKGPGWGSFDLWGRGTLVTVSS
VL: DIQMTQSPSSLSASVGDRVTITCQASQDINNYLNWYQQKPGKAPKLLIYDASNLQTGVPSRFSGSGSGTDFTFTISSLQPEDIATYYCQQHESQSPTFGPGTKVDIK
modifications: IgG4 S228P kappa constant regions; mAb25 VH Chain; mAb25 VL Chain
B9: mAb26: anti-IL-11Rα antibody, human IgG4 (S228P), kappa; VH SEQ ID NO: 243, VL SEQ ID NO: 244 (antibody, V domains shown)
VH: EVQLLESGGGLVQPGGSLRLSCAASGFTFSNYSMTWVRQAPGKGLEWVSSIVPYGDLTQYADSVKGRFTISRDNSKNTLYLQMNSLRAEDTAVYYCAKGPGWGSFDLWGRGTLVTVSS
VL: DIQMTQSPSSLSASVGDRVTITCQASQDINNYLNWYQQKPGKAPKLLIYDASNLQTGVPSRFSGSGSGTDFTFTISSLQPEDIATYYCQQHESQSPTFGPGTKVDIK
modifications: IgG4 S228P kappa constant regions; mAb23 VH Chain; mAb26 VL Chaim
B10: mAb27: anti-IL-11Rα antibody, human IgG4 (S228P), kappa; VH SEQ ID NO: 245, VL SEQ ID NO: 246 (antibody, V domains shown)
VH: EVQLLESGGGLVQPGGSLRLSCAASGFTFSPYSMTWVRQAPGKGLEWVSSIVPYGDLTQYADSVKGRFTISRDNSKNTLYLQMNSLRAEDTAVYYCAKGPGWGSFDLWGRGTLVTVSS
VL: DIQMTQSPSSLSASVGDRVTITCQASQDINNYLNWYQQKPGKAPKLLIYDASNLQTGVPSRFSGSGSGTDFTFTISSLQPEDIATYYCQQHESQSPTFGPGTKVDIK
modifications: IgG4 S228P kappa constant regions; mAb27 VH Chain; mAb27 VL Chain
B11: mAb28: anti-IL-11Rα antibody, human IgG4 (S228P), kappa; VH SEQ ID NO: 247, VL SEQ ID NO: 248 (antibody, V domains shown)
VH: EVQLLESGGGLVQPGGSLRLSCAASGFTFSRYSMTWVRQAPGKGLEWVSSIVPYGDLTQYADSVKGRFTISRDNSKNTLYLQMNSLRAEDTAVYYCAKGPGWGSFDLWGRGTLVTVSS
VL: DIQMTQSPSSLSASVGDRVTITCQASQDINNYLNWYQQKPGKAPKLLIYDASNLQTGVPSRFSGSGSGTDFTFTISSLQPEDIATYYCQQHESQSPTFGPGTKVDIK
modifications: IgG4 S228P kappa constant regions; mAb28 VH Chain; mAb28 VL Chain
B12: mAb30: anti-IL-11Rα antibody, human IgG4 (S228P), kappa; VH SEQ ID NO: 251, VL SEQ ID NO: 252 (antibody, V domains shown)
VH: EVQLLESGGGLVQPGGSLRLSCAASGFTFSTYSMTWVRQAPGKGLEWVSSIVPYGDLTQYADSVKGRFTISRDNSKNTLYLQMNSLRAEDTAVYYCAKGPGWGSFDLWGRGTLVTVSS
VL: DIQMTQSPSSLSASVGDRVTITCQASQDINNYLNWYQQKPGKAPKLLIYDASNLQTGVPSRFSGSGSGTDFTFTISSLQPEDIATYYCQQHESQSPTFGPGTKVDIK
modifications: IgG4 S228P kappa constant regions; mAb30 VH Chain; mAb30 VL Chain

Molecular target: T1, hIL-11R (Homo sapiens, UniProt Q14626)
T1 sequence (Q14626 23-422): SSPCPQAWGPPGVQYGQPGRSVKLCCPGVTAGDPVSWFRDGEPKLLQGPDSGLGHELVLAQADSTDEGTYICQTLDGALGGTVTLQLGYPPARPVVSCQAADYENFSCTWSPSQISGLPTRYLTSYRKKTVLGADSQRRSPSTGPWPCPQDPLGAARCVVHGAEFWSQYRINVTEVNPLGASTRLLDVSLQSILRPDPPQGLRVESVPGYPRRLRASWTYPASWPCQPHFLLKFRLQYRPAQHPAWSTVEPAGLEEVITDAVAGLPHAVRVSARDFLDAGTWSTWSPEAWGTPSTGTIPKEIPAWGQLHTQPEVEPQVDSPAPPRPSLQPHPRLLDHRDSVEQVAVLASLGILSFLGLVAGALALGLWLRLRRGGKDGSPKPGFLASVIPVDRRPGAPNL
Assay: Alternate biolayer interferometry assay (AHC biosensors) ranking mAbs 16-32 against mAb5
Assay type: binding
Conditions: for ka / kd: AHC biosensors; for qualitative assessment: compared to mAb5 (comparator)
Text: A further series of antibodies were designed in which the residue at Kabat position 31 of the heavy chain was varied (mAbs 16-32). In this case an alternate biolayer interferometry assay was used to initially rank the antibodies compared to mAb5, the closest relative in sequence to mAbs 16-32. MAbs were loaded onto anti-human constant domain (AHC) biosensors (FortéBio) in 10×kinetics buffer consisting of PBS, 0.1% BSA, 0.02% polysorbate 20 (TWEEN™) for 120 s to achieve a spectral shift value of 0.8 to 1.2 nm. Association was carried out in the presence of 2-fold dilution series of hIL-11R and was allowed to proceed for 120 s. Dilution series started 10 nM. The dissociation in 10×kinetics buffer for 1200 s. Binding kinetic measurements were taken on an Octet RED96e instrument.

Molecule	ka	kd	potency compared to mAb5 by more detailed kinetic measurements (in words)	qualitative assessment
B1	750000 M⁻¹ s⁻¹	off-scale	further improved potency	improved/
B2	720000 M⁻¹ s⁻¹	off-scale	further improved potency	improved/
B3	610000 M⁻¹ s⁻¹	1.8e-05 s⁻¹	further improved potency	improved/
B4	690000 M⁻¹ s⁻¹	off-scale	further improved potency	improved/
B5				similar
B6				similar
B7				similar
B8				similar
B9				decreased
B10				decreased
B11				similar
B12				decreased
